Among the data in the Human Domainome abundance scans (Beltran et al. 2025) are abundance fitness values, retold here.

First the molecules themselves.
B1: LIM and senescent cell antigen-like-containing domain protein 2, residues 13 to 71; numbered along this chain, Q7Z4I7 (parent)
chain: AVCQRCQARFSPAERIVNSNGELYHEHCFVCAQCFRPFPEGLFYEFEGRKYCEHDFQML

± gives the uncertainty stated by the source.

Variants of B1 are the subject of the series. Nature of the series: abundance fitness (aPCA) (normalised: wild type 0, dead -1); higher = more abundant; growth selection in yeast, the domain comes from the species named. Particulars: Homo sapiens.
With C6P, the abundance fitness is -0.896 ± 0.14.
As for C6K, the abundance fitness is -0.469 ± 0.11.
Regarding C6T, the abundance fitness is -0.935 ± 0.16.
For the variant C6N, the abundance fitness is -0.679 ± 0.15.
With F43C, the abundance fitness was -0.223 ± 0.13.
Consider A1P, for which the abundance fitness was -0.739 ± 0.32.
In the case of A1L, the abundance fitness was -0.149 ± 0.15.
With A1D, the abundance fitness was -0.256 ± 0.21.
With C3G, the abundance fitness was -0.499 ± 0.083.
Consider C3E, for which the abundance fitness is -0.468 ± 0.17.
Take C3R: the abundance fitness is -1.21 ± 0.18.
On to K50W, for which the abundance fitness is -0.191 ± 0.085.
On to K50A, for which the abundance fitness is -0.2 ± 0.088.
As for K50G, the figure is -0.212 ± 0.081.
For K50R, the abundance fitness is -0.05 ± 0.058.
Regarding K50T, the abundance fitness is -0.047 ± 0.08.
As to F29R, the abundance fitness is -0.141 ± 0.058.
On to F29M, for which the abundance fitness was determined as 0.1 ± 0.077.
As for F29V, the figure is -0.083 ± 0.085; as for F29K, -0.407 ± 0.089; as for F29S, -0.155 ± 0.06.
For Q4F, the abundance fitness was -0.161 ± 0.17.
On to Q4M, for which the abundance fitness came out at 0.209 ± 0.1.
Consider Q4E, for which the abundance fitness is -0.133 ± 0.082.
P39D: the abundance fitness came to 0.05 ± 0.1.
Regarding P39I, the abundance fitness was -0.396 ± 0.1.
Take P39Y: the abundance fitness is -0.396 ± 0.11.
For the variant P39E, the abundance fitness was -0.024 ± 0.072.
P39C: the abundance fitness stood at 0.01 ± 0.089.
For P39S, the abundance fitness is -0.124 ± 0.049.
As for Y24I, the figure is -0.137 ± 0.062.
Consider Y24E, for which the abundance fitness was -0.303 ± 0.069.
C52P: the abundance fitness is -0.949 ± 0.17.
For C52Y, the abundance fitness was -0.49 ± 0.19.
Turning to C52E, the abundance fitness was -0.719 ± 0.11.
As for Q7Y, the figure is -0.11 ± 0.072.
Consider Q7E, for which the abundance fitness was -0.668 ± 0.082.
For R49C, the abundance fitness is -0.011 ± 0.13.
Turning to G41M, the abundance fitness is -0.271 ± 0.15.
For G41F, the abundance fitness is -0.481 ± 0.078.
On to G41L, for which the abundance fitness was -0.394 ± 0.068.
For G41V the value was -0.613 ± 0.075; for G41R, -0.084 ± 0.058; for G41E, -0.612 ± 0.28.
Consider V17M, for which the abundance fitness was -0.248 ± 0.085.
With V17T, the abundance fitness was -0.048 ± 0.068.
Consider V17C, for which the abundance fitness is -0.298 ± 0.13.
Take V17K: the abundance fitness was found to be 0.03 ± 0.1.
For Y51Q the value was -0.785 ± 0.24; for Y51P, -0.729 ± 0.14.
Turning to Y51G, the abundance fitness was -0.922 ± 0.14.
For Y51F the value was -0.053 ± 0.096; for F38A, -0.318 ± 0.078; for F38K, -0.238 ± 0.12.
As to C34F, the abundance fitness was -1.19 ± 0.29.
As for C34R, the abundance fitness was -0.668 ± 0.1.
With C34D, the abundance fitness is -0.757 ± 0.22.
Take L59Y: the abundance fitness was -0.204 ± 0.19.
Turning to L59S, the abundance fitness is -0.312 ± 0.083.
L59G: the abundance fitness was found to be 0.183 ± 0.14.
On to S19I, for which the abundance fitness was -0.151 ± 0.1.
In the case of S19R, the abundance fitness was found to be 0.113 ± 0.063.
In the case of R36S, the abundance fitness is -0.008 ± 0.064.
As for R36C, the figure is -0.026 ± 0.094.
As for N18F, the abundance fitness was found to be 0.11 ± 0.18.
As for N18C, the abundance fitness was -0.089 ± 0.16.
With N18Q, the abundance fitness is -0.06 ± 0.084.
Consider G48A, for which the abundance fitness is -0.201 ± 0.055.
As for G48V, the figure is -0.775 ± 0.071; as for G48D, -0.03 ± 0.097.
As to G48E, the abundance fitness was -0.062 ± 0.059.
For Q57D the value was -0.264 ± 0.12; for Q57E, -0.052 ± 0.092; for Q57T, -0.121 ± 0.067.
With H25P, the abundance fitness is -0.752 ± 0.1.
On to S11Q, for which the abundance fitness is -0.075 ± 0.08.
As to S11A, the abundance fitness came out at 0.137 ± 0.063.
As for S11K, the figure is -0.055 ± 0.074; as for H27S, -0.227 ± 0.29; as for H27T, -0.227 ± 0.39.
For the variant H27P, the abundance fitness is -0.228 ± 0.33.
Turning to H27R, the abundance fitness is -0.016 ± 0.18.
For V2W the value was -0.546 ± 0.24; for V2M, 0.093 ± 0.088.
Regarding Y44D, the abundance fitness is -0.259 ± 0.17.
For the variant Y44A, the abundance fitness is -0.404 ± 0.087.
On to A32C, for which the abundance fitness was -0.354 ± 0.24.
For A32F the value was -0.258 ± 0.08.
As for A32E, the abundance fitness worked out at 0.014 ± 0.046.
Turning to A32I, the abundance fitness is -0.117 ± 0.072.
E14S: the abundance fitness was -0.034 ± 0.064.
Take E14N: the abundance fitness is -0.343 ± 0.14.
As for E47C, the figure is -0.247 ± 0.1.
Turning to E47W, the abundance fitness is -0.49 ± 0.072.
F35Q: the abundance fitness is -0.014 ± 0.11.
For the variant F35M, the abundance fitness was -0.027 ± 0.08.
As for F35N, the abundance fitness came out at 0.147 ± 0.091.
On to F35P, for which the abundance fitness was -0.739 ± 0.13.
For F35S the value was 0.219 ± 0.06.
On to E53N, for which the abundance fitness came out at 0.01 ± 0.14.
Consider E53A, for which the abundance fitness is -0.216 ± 0.062.
For E53C, the abundance fitness is -0.38 ± 0.12.
As to P37D, the abundance fitness was -0.217 ± 0.15.
With P37I, the abundance fitness was -0.23 ± 0.16.
As to P37M, the abundance fitness was -0.198 ± 0.089.
Consider P37Y, for which the abundance fitness was -0.14 ± 0.14.
As to R5K, the abundance fitness was determined as 0.052 ± 0.082.
As for R5I, the figure is 0.078 ± 0.14.
Take R5F: the abundance fitness is -0.347 ± 0.15.
As for R5G, the figure is 0.231 ± 0.07; as for P12Q, -0.126 ± 0.09.
On to P12A, for which the abundance fitness is 0.067 ± 0.063.
For the variant A13D, the abundance fitness came out at 0.142 ± 0.16.
Regarding A13N, the abundance fitness came to 0.186 ± 0.13.
For the variant A13M, the abundance fitness is -0.22 ± 0.1.
A13F: the abundance fitness is -0.781 ± 0.15.
In the case of A13G, the abundance fitness was -0.182 ± 0.083.
Take A13I: the abundance fitness was -0.581 ± 0.17.
Regarding C28E, the abundance fitness is -0.62 ± 0.12.
As for C28A, the figure is -0.292 ± 0.083; as for A8H, -0.041 ± 0.1.
As for A8P, the abundance fitness is -0.797 ± 0.091.
As to A8L, the abundance fitness was 0.064 ± 0.038.
For A8R the value was 0.181 ± 0.041.
For A8S the value was 0.076 ± 0.045; for D55N, -0.606 ± 0.12.
For D55W the value was -0.815 ± 0.083; for D55Y, -0.814 ± 0.12.
Regarding D55V, the abundance fitness was -0.964 ± 0.1.
As for V30D, the figure is -0.798 ± 0.27.
V30G: the abundance fitness is -0.233 ± 0.076.
Regarding V30C, the abundance fitness was -0.11 ± 0.08.
With V30Y, the abundance fitness is -0.343 ± 0.11.
As for F46K, the abundance fitness is -0.173 ± 0.11.
Turning to F46G, the abundance fitness was -0.465 ± 0.1.
In the case of F46R, the abundance fitness is -0.271 ± 0.06.
For M58C the value was 0.043 ± 0.12.
In the case of M58N, the abundance fitness stood at 0.132 ± 0.12.
With M58P, the abundance fitness is -0.06 ± 0.094.
Take L23G: the abundance fitness is -0.2 ± 0.052.
As for E22Y, the figure is -0.08 ± 0.1; as for E22G, -0.096 ± 0.11; as for R9F, -0.408 ± 0.12.
R9N: the abundance fitness was -0.135 ± 0.11.
In the case of N20D, the abundance fitness worked out at 0.313 ± 0.15.
In the case of N20E, the abundance fitness was -0.282 ± 0.11.
For C31V the value was -1.04 ± 0.099.
As for C31S, the figure is -0.896 ± 0.083.
In the case of L42E, the abundance fitness stood at 0.083 ± 0.1.
For L42W, the abundance fitness is -0.302 ± 0.1.
For the variant L42H, the abundance fitness was -0.198 ± 0.17.
Turning to L42M, the abundance fitness was 0.045 ± 0.087.
With L42I, the abundance fitness is 0.112 ± 0.11.
For R15E, the abundance fitness stood at 0.01 ± 0.069.
As for R15S, the abundance fitness was determined as 0.098 ± 0.045.
Turning to R15F, the abundance fitness was -0.467 ± 0.085.
In the case of R15G, the abundance fitness was -0.144 ± 0.054.
Take R15L: the abundance fitness was -0.255 ± 0.049.
Regarding R15P, the abundance fitness was -0.03 ± 0.076.
As for I16S, the figure is -0.04 ± 0.043; as for F10P, -0.304 ± 0.093.
On to H54L, for which the abundance fitness was -0.017 ± 0.053.
Regarding G21Q, the abundance fitness was -0.2 ± 0.11.
As to G21E, the abundance fitness turned out to be 0.053 ± 0.13.
As for E26C, the figure is -0.51 ± 0.21; as for E26G, -0.353 ± 0.083; as for E26W, -0.547 ± 0.14.
